Reference: US6225451

Test system: T1, CHD1.ZnF3-8 (CHD1 zinc fingers 3 through 8) (Homo sapiens)
T1 sequence: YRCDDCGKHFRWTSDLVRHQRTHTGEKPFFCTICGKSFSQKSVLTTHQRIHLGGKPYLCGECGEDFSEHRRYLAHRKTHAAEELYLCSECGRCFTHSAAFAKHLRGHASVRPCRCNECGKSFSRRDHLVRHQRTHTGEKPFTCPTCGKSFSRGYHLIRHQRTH
Assay: EMSA
Settings: apparent, upper limit from protein dilution; poly d(I:C) does not compete

ApoAIV promoter fragment -573 to -165
Kd: 10 nM
